Measured values taken from patent US20130071393A1 (published 2013).
Positions count from the first letter of the chain named.

T1: GDF11 (UniProt O95390 299-407)
T1 construct: Ligand used in the reporter gene and BiaCore assays; construct not described; also called Growth and Differentiation Factor-11; BMP11
T1 sequence (looked up): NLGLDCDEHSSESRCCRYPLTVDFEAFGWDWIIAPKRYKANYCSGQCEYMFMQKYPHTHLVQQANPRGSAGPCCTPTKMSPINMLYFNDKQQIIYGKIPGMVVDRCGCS

T2: Activin A (UniProt P08476 311-426)
T2 construct: also called ActA
T2 sequence (looked up): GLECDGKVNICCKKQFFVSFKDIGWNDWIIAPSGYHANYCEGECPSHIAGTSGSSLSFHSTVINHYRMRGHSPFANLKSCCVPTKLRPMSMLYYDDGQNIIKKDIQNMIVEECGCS

B1: Soluble ActRIIB-Fc D54A (Fc fusion, UniProt Q13705 19-119, looked up)
chain: SGRGEAETRECIYYNANWELERTNQSGLERCEGEQAKRLHCYASWANSSGTIELVKKGCWLDDFNCYDRQECVATEENPQVYFCCCEGNFCNERFTHLPEA
notes: T0019 variant; whole entry named; not shown: Fc domain
B2: Soluble ActRIIB-Fc D80R (Fc fusion, UniProt Q13705 19-119, looked up)
chain: B1 chain with A36D, D62R
notes: as for B1
B3: Soluble ActRIIB-Fc D80A (Fc fusion, UniProt Q13705 19-119, looked up)
chain: B1 chain with A36D, D62A
notes: as for B1
B4: Soluble ActRIIB-Fc D80K (Fc fusion, UniProt Q13705 19-119, looked up)
chain: B1 chain with A36D, D62K
notes: as for B1
B5: Soluble ActRIIB-Fc D80G (Fc fusion, UniProt Q13705 19-119, looked up)
chain: B1 chain with A36D, D62G
notes: as for B1
B6: Soluble ActRIIB-Fc D80M (Fc fusion, UniProt Q13705 19-119, looked up)
chain: B1 chain with A36D, D62M
notes: as for B1
B7: Soluble ActRIIB-Fc D80I (Fc fusion, UniProt Q13705 19-119, looked up)
chain: B1 chain with A36D, D62I
notes: as for B1
B8: Soluble ActRIIB-Fc R56A (Fc fusion, UniProt Q13705 19-119, looked up)
chain: B1 chain with A36D, R38A
notes: as for B1
B9: Soluble ActRIIB-Fc K74F (Fc fusion, UniProt Q13705 19-119, looked up)
chain: B1 chain with A36D, K56F
notes: as for B1
B10: Soluble ActRIIB-Fc K55A (Fc fusion, UniProt Q13705 19-119, looked up)
chain: B1 chain with A36D, K37A
notes: as for B1
B11: Soluble ActRIIB-Fc K74A (Fc fusion, UniProt Q13705 19-119, looked up)
chain: B1 chain with A36D, K56A
notes: as for B1
B12: Soluble ActRIIB-Fc D80F (Fc fusion, UniProt Q13705 19-119, looked up)
chain: B1 chain with A36D, D62F
notes: as for B1
B13: Soluble ActRIIB-Fc WT (64R) (Fc fusion, UniProt Q13705 19-119, looked up)
chain: B1 chain with A36D, A46R
notes: as for B1
B14: Soluble ActRIIB-Fc K74I (Fc fusion, UniProt Q13705 19-119, looked up)
chain: B1 chain with A36D, K56I
notes: as for B1
B15: Soluble ActRIIB-Fc D80N (Fc fusion, UniProt Q13705 19-119, looked up)
chain: B1 chain with A36D, D62N
notes: as for B1
B16: Soluble ActRIIB-Fc E37A (Fc fusion, UniProt Q13705 19-119, looked up)
chain: B1 chain with E19A, A36D
notes: as for B1
B17: Soluble ActRIIB-Fc W78A (Fc fusion, UniProt Q13705 19-119, looked up)
chain: B1 chain with A36D, W60A
notes: as for B1
B18: Soluble ActRIIB-Fc L79A (Fc fusion, UniProt Q13705 19-119, looked up)
chain: B1 chain with A36D, L61A
notes: as for B1
B19: Soluble ActRIIB-Fc K74Y (Fc fusion, UniProt Q13705 19-119, looked up)
chain: B1 chain with A36D, K56Y
notes: as for B1

What was measured:
GDF11 [1] = target: T1, GDF11; assay: cell-based or functional assay
Activin A [2] = target: T2, Activin A; assay: cell-based or functional assay
GDF11 [3] = target: T1, GDF11; assay: BiaCore; ligand coupled to the device, receptor-Fc flowed over
Activin A [4] = target: T2, Activin A; assay: as above
GDF11 [5] = target: T1, GDF11; assay: BiaCore; ligand coupled, receptor-Fc flowed over; legend: -- = <⅕ WT binding

Molecule | binding result (GDF11 [3]) | binding result (Activin A [4]) | other results
ActRIIB-Fc A64 20-134 (from UniProt Q13705 20-134) (Fc fusion) | – | – | KI, GDF11 Inhibition Activity (cell based assay) (GDF11 [1]): 1000 nM; KI, Activin Inhibition Activity (cell based assay) (Activin A [2]): 1000 nM
B1 | no binding | – | –
B2 | no binding | no binding | –
B3 | no binding | no binding | –
B4 | no binding | no binding | –
B5 | no binding | no binding | –
B6 | no binding | no binding | –
B7 | – | no binding | binding relative to WT (GDF11 [5]): < 0.2 fold
B8 | no binding | no binding | –
B9 | – | no binding | binding relative to WT (GDF11 [5]): < 0.2 fold
B10 | no binding | – | –
B11 | – | – | Kd (GDF11 [3]): 5.3 nM; Kd (Activin A [4]): 4.35 nM
B12 | no binding | no binding | –
B13 | – | – | Kd (GDF11 [3]): 86 nM
B14 | – | no binding | binding relative to WT (GDF11 [5]): < 0.2 fold
B15 | no binding | no binding | –
B16 | no binding | no binding | –
B17 | no binding | no binding | –
B18 | no binding | – | –
B19 | – | no binding | binding relative to WT (GDF11 [5]): < 0.2 fold
